Data taken from publication PMC5066248.

Biological target: His6-GroEL
Experiment: cryo-EM structure; His6-GroEL captured from clarified E. coli lysate on Ni2+-activated BSA-PABA-GO-NTA coated lacey carbon 400 mesh grids; single particle analysis of 5363 particles in EMAN 2.1 with imposed D7 symmetry; 8.1 Å (gold standard, 0.143 criteria)

His6-GroEL, sequence (A1AJ51 2-548): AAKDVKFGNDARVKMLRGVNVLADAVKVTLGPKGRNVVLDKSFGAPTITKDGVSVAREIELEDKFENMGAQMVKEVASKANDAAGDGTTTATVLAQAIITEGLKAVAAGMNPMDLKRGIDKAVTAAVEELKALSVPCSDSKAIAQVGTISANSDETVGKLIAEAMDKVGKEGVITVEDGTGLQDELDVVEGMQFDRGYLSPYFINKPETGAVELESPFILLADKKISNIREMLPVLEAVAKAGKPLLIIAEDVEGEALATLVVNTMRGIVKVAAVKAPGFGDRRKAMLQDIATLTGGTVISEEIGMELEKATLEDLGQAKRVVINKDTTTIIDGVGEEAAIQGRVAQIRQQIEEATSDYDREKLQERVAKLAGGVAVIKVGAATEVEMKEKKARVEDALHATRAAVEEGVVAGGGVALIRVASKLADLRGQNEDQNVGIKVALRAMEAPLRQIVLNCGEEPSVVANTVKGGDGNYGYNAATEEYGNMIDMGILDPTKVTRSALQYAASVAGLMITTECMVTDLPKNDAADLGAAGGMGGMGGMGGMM

stoichiometry N: 14
Substance: His6-GroEL (natural protein)
